The text below walks through data of article PMC3290565, “Pentachlorophenol Induction of the Pseudomonas aeruginosa mexAB-oprM Efflux Operon: Involvement of Repressors NalC and MexR and the Antirepressor ArmR”.

The target of data set [1] is T1, NalC-His (Pseudomonas aeruginosa K767, UniProt Q9HXS0 1-213). Put plainly: EMSA; data not shown. The following applies: protein: recombinant; tags: C-terminal His (pET23a); chain copies: 2.
Data set [2] deals with T1, NalC-His. Put plainly: EMSA; 300-2000 ng NalC-His, 40 ng DNA. The following applies: protein: recombinant; tags: C-terminal His (pET23a); chain copies: 2; blunt. In general terms: Mobility shift assays separate free from complexed probe on a gel.

B1: 21-bp inverted repeat only (dsDNA)
DNA 1: AGAACTGTATCGTACAGTACT
DNA 2: AGTACTGTACGATACAGTTCT
As for B1, the binding result in the data set with NalC-His [1] is “no binding”.

B2: NalC-1 (endpoints III) (dsDNA)
DNA 1: TGGTCATTTAAGAACTGTATCGTACAGTACTGTTTTGGCAA
DNA 2: TTGCCAAAACAGTACTGTACGATACAGTTCTTAAATGACCA
For the molecule B2, the binding result with NalC-His [2] is recorded as “binds”.

B3: NalC-2 (endpoints IV) (dsDNA)
DNA 1: TTGGCAAGCACTTCCGCTCATTCCTCCGCCTTGCCTCCCGC
DNA 2: GCGGGAGGCAAGGCGGAGGAATGAGCGGAAGTGCTTGCCAA
For the molecule B3, the binding result in the data set with NalC-His [2] was “no binding”.
